Measurements as given in US20190218304A1, “POTENTIATING THE EFFECT OF ATP RELEASE” (INNATE PHARMA, priority 2017, published 2019).
“Also recorded” adds a separate entry of the source.

Columns and labels:
[1] = molecular target: T1, human CD39 (Homo sapiens, UniProt P49961); assay: ELISA titration on human CD39; assay type: binding; conditions: coated recombinant protein, OD=450
T1 sequence (P49961 1-510): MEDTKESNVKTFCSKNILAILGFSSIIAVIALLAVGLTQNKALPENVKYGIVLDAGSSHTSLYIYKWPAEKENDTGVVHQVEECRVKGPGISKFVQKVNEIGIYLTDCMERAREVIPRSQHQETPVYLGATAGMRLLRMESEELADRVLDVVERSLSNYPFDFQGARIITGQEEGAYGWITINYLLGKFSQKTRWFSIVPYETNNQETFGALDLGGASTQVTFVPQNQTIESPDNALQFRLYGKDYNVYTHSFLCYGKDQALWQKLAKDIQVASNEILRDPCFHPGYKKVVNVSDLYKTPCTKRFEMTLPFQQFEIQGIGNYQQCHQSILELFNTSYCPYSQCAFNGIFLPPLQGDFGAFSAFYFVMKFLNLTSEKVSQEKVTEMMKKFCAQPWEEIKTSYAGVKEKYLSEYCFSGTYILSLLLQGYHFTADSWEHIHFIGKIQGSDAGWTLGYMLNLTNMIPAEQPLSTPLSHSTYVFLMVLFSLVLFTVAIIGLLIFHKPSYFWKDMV
Protocol: (§1) Wells were washed in TBS Tween 20, and further saturated 2H at RT in TBS Blocking buffer. Dose range concentration of primary antibody was incubated in TBS blocking buffer for 2 h at RT. Wells were washed in TBS Tween 20. […] Optical density was measured on Enspire™ at OD=450.

[2] = molecular target: T2, Human CD39-L1, also known as NTPDase2 or ENTPD2 (Homo sapiens, UniProt Q9Y5L3); assay: ELISA titration on CD39-L1; assay type: binding; conditions: coated recombinant protein, OD=450
T2 sequence (Q9Y5L3 1-472 isoform Q9Y5L3-2): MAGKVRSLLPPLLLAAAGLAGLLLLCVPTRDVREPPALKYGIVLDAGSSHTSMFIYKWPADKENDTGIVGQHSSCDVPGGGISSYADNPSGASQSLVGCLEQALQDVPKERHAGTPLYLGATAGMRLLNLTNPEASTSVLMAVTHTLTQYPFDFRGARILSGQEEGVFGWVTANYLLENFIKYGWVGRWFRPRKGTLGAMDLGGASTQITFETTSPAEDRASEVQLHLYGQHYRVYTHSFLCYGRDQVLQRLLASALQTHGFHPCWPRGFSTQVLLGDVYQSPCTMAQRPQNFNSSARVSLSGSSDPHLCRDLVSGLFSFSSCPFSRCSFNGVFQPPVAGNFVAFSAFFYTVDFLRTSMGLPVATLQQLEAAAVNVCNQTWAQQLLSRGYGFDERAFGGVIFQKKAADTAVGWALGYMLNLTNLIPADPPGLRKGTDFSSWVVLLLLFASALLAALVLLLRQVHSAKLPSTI
Protocol: as §1

[3] = molecular target: T3, CHO cells expressing human CD39 (Homo sapiens, UniProt P49961); assay: Antibody titration by flow cytometry on CHO-huCD39; assay type: binding
T3 construct: expressed in transfected cells; host or cells: CHO cells
T3 sequence (P49961 1-510): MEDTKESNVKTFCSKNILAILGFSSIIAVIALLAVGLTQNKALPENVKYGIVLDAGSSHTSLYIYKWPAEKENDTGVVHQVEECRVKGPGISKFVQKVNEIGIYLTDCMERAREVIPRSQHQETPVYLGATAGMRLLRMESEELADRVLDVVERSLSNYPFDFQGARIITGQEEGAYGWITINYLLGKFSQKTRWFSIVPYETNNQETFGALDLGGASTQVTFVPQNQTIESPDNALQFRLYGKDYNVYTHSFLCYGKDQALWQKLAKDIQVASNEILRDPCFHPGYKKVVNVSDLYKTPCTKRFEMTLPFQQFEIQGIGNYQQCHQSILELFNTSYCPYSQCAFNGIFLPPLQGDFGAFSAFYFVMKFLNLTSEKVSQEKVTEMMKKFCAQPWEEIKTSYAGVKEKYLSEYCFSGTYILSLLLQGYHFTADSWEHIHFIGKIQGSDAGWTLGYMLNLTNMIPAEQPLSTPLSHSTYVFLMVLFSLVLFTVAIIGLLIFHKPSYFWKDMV
Protocol: Cells were incubated with various concentration of unlabeled anti-CD39 antibody from 30 μg/ml to 5×10^−4 μg/ml, for 30 minutes at 4° C. After washes, cells were incubated with Goat anti-mouse H+L labeled secondary antibody for 30 min at 4° C.

[4] = molecular target: T4, soluble recombinant human CD39 protein (Homo sapiens, UniProt P49961); assay: Inhibition of the enzymatic activity of soluble CD39 (Cell Titer Glo); assay type: biochemical
T4 construct: made in house; host or cells: CHO cells
T4 sequence (P49961 with tags, fused parts or gaps): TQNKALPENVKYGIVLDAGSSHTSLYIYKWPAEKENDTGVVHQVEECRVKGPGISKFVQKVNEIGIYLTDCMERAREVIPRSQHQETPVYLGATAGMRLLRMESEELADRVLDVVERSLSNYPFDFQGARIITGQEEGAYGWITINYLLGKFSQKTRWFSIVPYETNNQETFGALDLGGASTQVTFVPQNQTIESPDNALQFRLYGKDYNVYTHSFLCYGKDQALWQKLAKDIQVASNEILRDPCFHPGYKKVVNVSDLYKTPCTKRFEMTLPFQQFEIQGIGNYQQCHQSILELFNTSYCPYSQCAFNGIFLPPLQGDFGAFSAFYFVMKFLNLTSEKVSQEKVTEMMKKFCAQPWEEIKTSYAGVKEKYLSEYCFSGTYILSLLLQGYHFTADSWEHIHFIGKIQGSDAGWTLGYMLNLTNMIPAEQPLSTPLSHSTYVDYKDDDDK
Protocol: The inhibition by antibodies of the enzymatic activity of soluble CD39 protein produced was evaluated using Cell Titer Glo™ (Promega, reference G7571) that allows assessment of ATP hydrolysis through use of a reagent that generates a luminescent signal proportional to the amount of ATP present. In this way, inhibition of the soluble-CD39-meidatd ATP hydrolysis can be assessed. Briefly, dose ranges of anti-CD39 antibodies from 100 μg/ml to 6×10^−3 μg/ml were incubated with 400 ng/ml of soluble recombinant human CD39 protein having the amino acid sequence described in the Methods section (SEQ ID NO: 39), for 1 h at 37° C. 20 μM ATP was added to the plates for 30 additional minutes at 37° C. before addition of CTG (Cell Titer Glo) reagent. Emitted light was quantified using an Enspire™ luminometer after a short incubation period of 5 min in the dark. Anti-CD39 antibody efficacy was determined by comparing emitted light in presence of antibody with ATP alone (maximal light emission) and ATP together with soluble CD39 protein (minimal light emission).

[5] = tested on: monocyte-derived DC (moDC); assay: Activation of monocyte-derived dendritic cells in presence of ATP; assay type: cell-based, human; conditions: ATP at 0.125 mM, 0.25 mM or 0.5 mM, 24 hours; I-394 shown at 10 μg/ml
Protocol: While ATP has pro-inflammatory activity, CD39-mediated catabolism of ATP is believed to be able to impair dendritic cell (DC) activation, in turn altering a broader adaptive immune response against tumor antigen. In order to evaluate whether CD39 blockade using anti-CD39 antibodies could overcome CD39-mediated alteration of dendritic cell (DC) activation in the presence of ATP, we incubated monocyte-derived DC (moDC) with anti-CD39 antibodies in the presence of ATP.
Briefly, human monocytes were purified from human healthy blood and differentiated into MoDC in presence of GM-CSF and IL-4 during 6 days. […] LPS (Invivogen, 10 ng/ml) was used as positive control. To assess resulting effect of ATP-mediated DC activation on CD4 T cells activation, ATP-activated DC were washed and then incubated with allogenic CD4 T cells (ratio 1 MoDC/4 T cells) for a mixed lymphocytes reaction (MLR) during 5 days. T cells activation and proliferation were analyzed through CD25 expression and Cell Trace Violet dilution by flow cytometry (FIG. 8).

B1: I-394: anti-CD39 antibody, VH SEQ ID NO: 3, VL SEQ ID NO: 4; heavy and light chains SEQ ID NOS: 37 and 38 (antibody)
heavy: EVQLQQSGPELVKPGASVKMSCKASGYTFTDYNMHWVKQSHGRTLEWIGYIVPLNGGSTFNQKFKGRATLTVNTSSRTAYMELRSLTSEDSAAYYCARGGTRFAYWGQGTLVTVSAASTKGPSVFPLAPSSKSTSGGTAALGCLVKDYFPEPVTVSWNSGALTSGVHTFPAVLQSSGLYSLSSVVTVPSSSLGTQTYICNVNHKPSNTKVDKRVEPKSCDKTHTCPPCPAPEAEGAPSVFLFPPKPKDTLMISRTPEVTCVVVDVSHEDPEVKFNWYVDGVEVHNAKTKPREEQYNSTYRVVSVLTVLHQDWLNGKEYKCKVSNKALPSSIEKTISKAKGQPREPQVYTLPPSREEMTKNQVSLTCLVKGFYPSDIAVEWESNGQPENNYKTTPPVLDSDGSFFLYSKLTVDKSRWQQGNVFSCSVMHEALHNHYTQKSLSLSPGK
light: DIVLTQSPASLAVSLGQRATISCRASESVDNFGVSFMYWFQQKPGQPPNLLIYGASNQGSGVPARFRGSGSGTDFSLNIHPMEADDTAMYFCQQTKEVPYTFGGGTKLEIKRTVAAPSVFIFPPSDEQLKSGTASVVCLLNNFYPREAKVQWKVDNALQSGNSQESVTEQDSKDSTYSLSSTLTLSKADYEKHKVYACEVTHQGLSSPVTKSFNRGEC
modifications: Chimeric homo sapiens mus musculus
**Q.** What does the source list for B1?
**A.** binding to human CD39 in ELISA [1]: bound; also recorded: binds to human CD39; binding to CD39-L1 in ELISA [2]: not to any of the human isoforms; binding to cells expressing human CD39 (CHO-huCD39) [3]: bound; also recorded: binds; maximum inhibition achieved, soluble CD39 ([4]; 400 ng/ml soluble CD39, 20 μM ATP): 74.9%; inhibition of ATPase activity of soluble CD39 when spiked into negative hybridoma supernatants ([4]; antibody added to hybridoma supernatants negative for sCD39 inhibition): did not restore the ability of negative supernatants to inhibit ATPase activity of CD39; inhibition of ATPase activity after purification from negative supernatant ([4]; antibody purified from the negative supernatant with Protein A coated beads): again able to inhibit; inhibition of the enzymatic (ATPase) activity of soluble CD39 protein ([4]; result in words): strong inhibition; also recorded: inhibit soluble CD39; also recorded: inhibits the enzymatic activity; also recorded: highly potent at blocking the enzymatic activity; moDC activation as assessed by HLA-DR or CD83 expression [5]: permitted moDC activation; also recorded: lead to moDC activation
